A short description of the data set: label from the status in PepcDB records.
With “MSFVAYEELIKEGDTAILSLGHGAMVAVRVQRGAQTQTRHGVLRHSVDLIGRPFGSKVTCGRGGWVYVLHPTPELWTLNLPHRTQILYSTDIALITMMLELRPGSVVCESGTGSGSVSHAIIRTIAPTGHLHTVEFHQQRAEKAREEFQEHRVGRWVTVRTQDVCRSGFGVSHVADAVFLDIPSPWEAVGHAWDALKVEGGRFCSFSPCIEQVQRTCQALAARGFSELSTLEVLPQVYNVRTVSLPPPDLGTGTDGPAGSDTSPFRSGTPMKEAVGHTGYLTFATKTPG”, the protein production entry is recorded as “not failed”.
“MMSAVPVSLPVKMLVTRHISPDRYGDFLAWMRQGEILAAGFPGFLGSGVLQPPEGGDQYQIVLRFDSEASLARWEQSLPRRMWLERGAALVRASHARRVTGMDSWFGAPAGAPPRWKQAVSIWLVYFPMLLLFSTALDAQLNALPLFWRVLATTLCMTPVLSFLCIPLVTRVLRGWLHPRAVGAAD”: the protein production entry was “failed”.
In the case of “MAARGFRAGADHLRHQFCPPLVDPHRPWTARMKLLALSGSLRADSVNTALLRALAEAAPAGVEVCFFDGLRDLPLFNPDAEERENAAVTAWRAALRGADAVVISSPEYAHGIPGAFKNALDWVVGSAEFDGKPTLLLCASARPQHAPAQLAEVLRTMGARVQGPHLLDLPGNVAAAQSALRTPAQQAEARELLAALLP”, the protein production result is given as “failed”.
As to “MSANNTAKNMHPETRAVGSETSSLQASQDEFENLVRNVDVKSRIMDQYADWKGVRYRLGGSTKKGIDCSGFVQRTFREQFGLELPRSTYEQQEMGKSVSRSNLRTGDLVLFRAGSTGRHVGIYIGNNQFVHASTSSGVIISSMNEPYWKKRYNEARRVLSRSLEHHHHHH”, the protein production entry is given as “not failed”.
As to “MPKIIEAIYENGVFKPLQKVDLKEGERIKLRIEEGILDVIKKYQGKFKLTEKDIEKFLEERRLEHHHHHH”, the protein production result is reported as “not failed”.
In the case of “MCSFFKKKLCIFFFILGNVVGWSSCVWGHLGSQYTIIGQSVISHSIDEIIQKQQQIIKILEQEIKNLQKDFANESANEYALAKVRLRARDINKRAIEAAFVLRNPLNDINVLLDQLKELQDEPKNLKERSHLIKKKAQINNMVLQFEEIFLATNKIVELSLSQSRELFKRTFKNRLEFSIPMLKYSVEKMKEASSDFLFLFSSWCKFVFHFKFLQLFLSFLVPLFVALGLSYFSRKVLAHVNCYFTKGNEEISYLQRLLVAFISILLPLLVCVVCVYLVFFLFHSFGMELGKLTTIFYTVGHQIILVFLINRLALVLLSLNMVHVRLFNITPFVAHQLVILLTFLGGILAFDAVLDSIYQVVSASLSLTIAKSFIAVFLFAILLFIISFVPLRFRRKSSQNEERETHFLPLYIRIPFIVLGLLLIVMDSLGYVGLAHFIMQQIVIGGAFLVLMYLGIKSAQVIGTKGQFMKTSVGHALMQWFHLEEKTMNKLGIVISVVLNLIVVILCAMPIAVQFGFSYSDLRRVLLQVMTGFQIGNISVSLISIVIGIIAFFACWFLNRRFICWLDGMVLVHGEFDSGVRNSIKTVISYAGVVVSALIGLSMAGLDLKNFALIAGGLSLGIGFGLQNIVQNFVSGLIILIGRPFKLGDYVEAGSVGGIVKRISVRATELETFQRKTIIIPNSSLINNNVSNWTRGSKMGRVDIPIVVSPNVAPERVVEILLEIASTTEGVLKNPAPQVSFTAFDSKKFSFSLAVYVPNITSSFKVTNALHFVLYKRFVQEGILEC”, the protein production entry is listed as “failed”.
Regarding “MSLKITEVKAHALSTPIPERMRVESGAGLKLNRQMILVEVRTDEGVTGVGSPSGPYDLAVLKRAIEDVIGPQLIGEDPANINYLWHKVFHGEVSRNLGHRSVGIAAMSGVDIALWDLKGRAMNQPIYQLLGGKFHTRGVRAYASSIYWDLTPDQAADELAGWVEQGFTAAKLKVGRAPRKDAANLRAMRQRVGADVEILVDANQSLGRHDALAMLRILDEAGCYWFEEPLSIDDIEGHRILRAQGTPVRIATGENLYTRNAFNDYIRNDAIDVLQADASRAGGITEALAISASAASAHLAWNPHTFNDIITVAANLHLVAASPHPAMFEWDITHNDLMTRLASYDLKLENGLVQPPQGPGLGFEIDWDFVAAHAWKGEPAIGAGHGMKKEGHHHHHH”, the protein production result was “not failed”.
With “MYFSATLFNKYYKLLGTNDEGKLNLERTSSLAYFLALDQMQKDEEEPNAVINMYKDSLSRKNFMEKVGEIFVIAKNGSFEYQANILGCINKVEGGGNSMSSKTGKNFLSTQVISASSSPNPVGYPKRPAASFILELGFEIEGHKHGIKKSDSWKNNLMKFIEFRKCGTDTFPLIVFLLRDKQLNNNLDFNNAIREGLGSAYTQAVVDYLIVNAQVPSLVWDDLQNFATAPFTIDELDTELFMQDQPETNNLQPTVQVKEFKEIEIPNDISRNRIVYGAPGTGKSYKLNKDAKEFFPDDDLYIRVTLYPNYSYSQFVGTYKPTPIYKDVEGEFYKSDMVTSIGHGKEPLIDYTFVPGPFLIQLVNALKYPKSNFVIIIEEINRANAAAVFGDVFQLLDRKDDGESEYTITFNADVTNYLRKEGIFDLQIKIPKNLYIWATMNSADQGVTPLDTAFKRRWSFEYMPIDAGEGAVSSLEMELKFLENPILWNKFRKILNQKLKELMVPEDKLIGPFFMKSYELSNPESFKNKLLLYLRDDVLRHNATKFFKHQTFSDIVTAYDQGGNIFRTISKEELVRSE”, the protein production result is listed as “not failed”.
For the sequence “MGLTDIFLNLLLFVYPAVFIIYQIILYEISARKQINQEALKYSNLPVLSIIVPIKNEEISVIQGLLDNLSNLIWDKKKLEIIIVSDDNEDYFTKIINTVKVPKDLTVYFYRREKKLGYKSGALQYGFEKATGDLILTIDVDSRLPPNALINAYEKMQSNTCDAIVFQWNGYSSNQYSTLAKGMVVSTLFASKALFEGKEKLKLKIYPVGSGTMFSREALRVVNGWDYRLVQDDLEIGTRLIYNGKNVCASGIPIYVEVPDNFYSFYVQQTRWAMGSAEVLRNRLKYIIKSKISFTQRMDLIIYLLQYTPVIVTFFISTLLSLMLPFRIGHDPLNSPALLFWLVSLGLYASLLLSLALKLGLNLKDSLMGIGRLTAFTVSISPFIVFNFFKGLLKSGNTYVITPKGTVKKTNKLLRIIAIIGVFGLLYLLSSILYIYEGYYVTGIWLLYYSSAYLYTMLLYYKEL”, the protein production entry is “failed”.
“MPIKVKYYGNVVFASDAVCGQAENYATLKAMKEVGNYTISIQTFENAENVYPEEFLAKPVADEHYLTTEDGSVGIKGHYLDIVKELIEKDKVDIIFAGGKLGSLAKLAELTRPYGIPTLEHHHHHH”: the protein production result is “failed”.
As for “MGLIARLRRWYHLWVWRLRYWWYDTPSGVCAQHWAQGLGVLVFIVQLVRVWVAAALPAPHGAPAQAVYWWVWQLAIAVVAAYVSAALRPKPESVKPQQAQVPTVQDGQAVKHHFGTVWVGDEFILAWKMQGAIPIKTKGAGC”, the protein production result is recorded as “failed”.
As for “MSLKYLGVYVMEVQKNSSFKNKLQIGDTVLGANGHRFHSTEEMMTYLRKQKINSKVTISVLRGKEKLEHHHHHH”, the protein production result is on record as “failed”.
Take “MVMLNTHVVECLQACGRCAAACDYCASSCLREGHGADMARCIALDLDCAAACRLCAAMMARESEFSTHMCTLCARICEVCGDECARHEPRHCQECATACHACASACRAMARPLEHHHHHH”: the protein production entry was “not failed”.
For the sequence “MFSILLPTWNNLALLKLCVQSIRAHSAHDHQIIVHVNDGSDGTLAWVREQGLDHTHSPGNVGICLAVNESAMLARHDYIVYLNDDMVCCPGWDTALLRRLDTLDTDLFMLSGTMIEPVDTGNPCVVVGNYGRDADTFDAARLLADVPRLARGDWLGATWPPTLVHRRWWFKLGGYSSELTPGMSSDNDFSMKLWHAGCRIFLGAGDSLVYHFQCKSTGKVKKNDGRRQFLNKWGLSQSTFDKYFLRRGTPAGADWRLPEPELTSALRWDLRRNDLTRRLRPGVPVLLEHHHHHH”, the protein production result was “not failed”.
Turning to “VIGTWDCDTCLVQNKPEAIKCVACETPKPGTCVKRALTLT”, the protein production entry is recorded as “not failed”.
Next, “MSFRVSASSSVKPEKDIRIGLLGASGYTGAEIVRLLANHPHFQVTLMTADRKAGQSMESVFPHLRAQKLPTLVSVKDADFSTVDAVFCCLPHGTTQEIIKELPTALKIVDLSADFRLRNIAEYEEWYGQPHKAVELQKEVVYGLTEILREDIKKARLVANPGCYPTTIQLPLVPLLKANLIKHENIIIDAKSGVSGAGRGAKEANLYSEIAEGISSYGVTRHRHVPEIEQGLSDVAQSKVTVSFTPHLMPMIRGMQSTIYVEMAPGVRTEDLHQQLKTSYEDEEFVKVLDEGVVPRTHNVRGSNYCHMSVFPDRIPGRAIIISVIDNLVKGASGQALQNLNIMLGYPETTGLLHQPLFP”: “failed”.
Turning to “MMTTNTEYAPYRLELVNITKRYGGLVANDHISLKVAAGEIHAVLGENGAGKSTLMKIIYGAVKADEGEIVWNGRSVTVDSPAAARRLGIGMVYQHFSLFETLTVVENIALGLEEKFDLAHLAQRVVEVSEKYGLPIDPQRMVHSLSVGERQRVEIVRCLLQNPSLLILDEPTSVLTPQAVQVLFQTLRRLASEGVSILYISHKLNEIQSLCDTATILRGGQVTGTAIPKQETTASLAKMMIGRDLPAYQQHAYEGVQQPIFQVKQLSIPAQDMFGTSLKEINLSVNTGEILGIAGISGNGQAELLTALSGETTSLKESFWLDGQAIGHLHAGQRRKLGFGFVPEERLGRGAVPAMSLTENTLLTAFRMGMTRWGLVNYAKASAFAQACISKFGVKASGSDAAARSLSGGNLQKFIVGREIMQQPKVMVVAQPTWGVDVGASAFIRQTLIDLSRQGVAIVVISEELEELFEISDRIAVLAAGQLSPPQPVNETNAEQIGLLMSGLQRDSQPQEDVIRVSI”, the protein production result is “failed”.
For “AHKLFIGGLPNYLNDDQVKELLTSFGPLKAFNLVKDSATGLSKGYAFCEYVDINVTDQAIAGLNGMQLGDKKLLVQRASVGAKNA”, the protein production result was “not failed”.
Next, “MIFLIFSFIVLLIFGLANVYIYKRLIKKITLFKYFYKIFSFIFIVLFLAQAVFLIFRRDEYLSDTWYEILAMFYAPTYCLFFMTLAWDFVKLILALMGKRDKTYNLILRLIFELSLIVLSVFLIYVSINNALKTPEVKSVDVEIPNLKKDLKIVMLTDIHLGKNLHENFLDKLITKVNLQSPDMVVIVGDLIDTNPKDLKNYISKLNDFNSTYGTFYALGNHEYYHGINEVLDLLRKHTNMKILVNQNLDLGFINIAGLGDLAGLDRGLYAPDLARIKVDLNTSKASILLTHQPKTALLYDLSDFDLVLSGHTHGGQIFPFMFLVKLQQGFVHGLYDLGEKTKLYVSSGAGFWGPSLRVFAPSEIVILNLKGKK”: “failed”; “MRRSAYMTDTKICKKGCDHDTSHRENEQRCGRGSFWMHDPDLIFSELKLKAGEFFLDMGCGPGDYSIWASKIVGNSGMVYALDKWQELIDNLTEKADLEGIKNIKGMVSDIARPLPIEESCIDVYFISTVLHSLDLAKDSDVIFSEIHRVLKPDGRLAIVECKKEEMSFGPPLHMRLSPEELENLIAKYGFEKINLVDLGYNYMIQFRKSYQK”: “failed”; “MGIPEEIPPVFKTAVDVLRGASFGVADASILGYPATSMTLNQQVDNFRSMKSNWIDDFIGRSLFMIYIGTEDKLNFTKNKPNAASICHFRY”: “failed”.
As for “MDYKLIITLFTFCVAAFSGMKAAEAASFSVVADGLNNARGLSFGLDGALYVTEAGTGGNGACIPSVTGQGGSLCYGTSSTVLKIENGVTSPVLTGLPSIALADGTGAGGARDIQFDTTGKPYILMGYGANPTFRNNLGNIDLGKIIAPDFQTNSWTSIADLANYELVNNPDGGDINSNPLGFFIDGNNLIAVDAGANNLLSVQTNGTNLQTLSVFPQEILTNPVFPPSGTPSTEPGQVPTPTAPPPPQLPIQVVPSSVVRGPDGAYYVSQFTGFPFPEGGAKIYRVGTDGETTIYADGFTQLTDLEFDSAGNLYALQYANQSAWKGNFDGSLIKIAADGTRTTILSGNGLESPNALAIAPNGEIYITNRSDRPGLGQIIRVENSQAVPEPNSAFSVFLLGAFGVAWLRKSTSRVCLNQKP”, the protein production entry is given as “failed”.

The values are drawn from a protein production outcome set (Wang et al. 2014).
